Measurements published in publication PMC3500269.

Biological target: cellobiose dehydrogenase IIA from N. crassa (N. crassa)

Row | Specific activity of H2O2 production (Amplex Red/horseradish peroxidase assay) with CDH IIA (0.3 uM, 500 uM cellobiose) as reductant | Binder
1 | 15.5 U g^-1 | PMO-03328 (enzyme) HYTFPKVWANSGTTADWQYVRRADNWQNNGFVDNVNSQQIRCFQSTHSPAQSTLSVAAGTTITYGAAPSVYHPGPMQFYLARVPDGQDINSWTGEGAVWFKIYHEQPTFGSQLTWSSNGKSSFPVKIPSCIKSGSYLLRAEHIGLHVAQSSGAAQFYISCAQLSITGGGSTEPGANYKVSFPGAYKASDPGILININYPVPTSYKNPGPSVFTC
2 | 1.82 U g^-1 | PMO-02916 (enzyme) HTIFQKVSVNGADQGQLKGIRAPANNNPVTDVMSSDIICNAVTMKDSNVLTVPAGAKVGHFWGHEIGGAAGPNDADNPIAASHKGPIMVYLAKVDNAATTGTSGLKWFKVAEAGLSNGKWAVDDLIANNGWSYFDMPTCIAPGQYLMRAELIALHNAGSQAGAQFYIGCAQINVTGGGSASPSNTVSFPGAYSASDPGILINIYGGSGKTDNGGKPYQIPGPALFTCPAGGSGGSSPAPATTASTPKPTSASAPKPVSTTASTPKPTNGSGSGTGAAHSTKCGGSKPAATTKASNPQPTNGGNSAVRAAALYGQCGGKGWTGPTSCASGTCKFSNDWYSQCLP
3 | 1.53 U g^-1 | PMO-08760 (enzyme) HATFQALWVDGADYGSQCARVPPSNSPVTDVTSNAMRCNTGTSPVAKKCPVKAGSTVTVEMHQQANDRSCSSEAIGGAHYGPVLVYMSKVSDAASADGSSGWFKIFEDTWAKKPSSSSGDDDFWGVKDLNSCCGKMQVKIPSDIPAGDYLLRAEVIALHTAASAGGAQLYMTCYQISVTGGGSATPATVSFPGAYKSSDPGILVDIHSAMSTYVAPGPAVYSGGSSKKAGSGCVGCESTCKVGSGPTGTASAVPVASTSAAAGGGGGGGSGGCSVAKYQQCGGTGYTGCTSCASGSTCSAVSPPYYSQCV
4 | 1.07 U g^-1 | PMO-01867 (enzyme) HAIFQQLWVDGVDYGSTCNRLPTSNSPVTNVGSRDVVCNAGTRGVSGKCPVKAGGTVTVEMHQQPGDRSCKSEAIGGAHWGPVQIYLSKVSDASTADGSSGGWFKIFSDAWSKKSGGRVGDDDNWGTRDLNACCGRMDVLIPKDLPSGDYLLRAEALALHTAGQSGGAQFYISCYQITVSGGGSANYATVKFPGAYRASDPGIQINIHAVVSNYVAPGPAVVAGGVTKQAGSGCIGCESTCKVGSSPSAVAPGGKPASGGSDGNAPEVAEPSGGEGSPSAPGACEVAAYGQCGGDQYSGCTQCASGYTCKAVSPPYYSQCAPTS
